Here are results for six molecules from patent US20160101154A1 (SAMSUNG ELECTRONICS, published 2016).

Positions count from the first letter of the chain named. In names and notes the source's numbering stands. A value given as a limit tells only on which side of the number the result lay.

Experiment [1] has as its target T1, Tie2 proteins (Q02763, R&D systems) (UniProt Q02763 23-745, limits assumed).
T1 construct: Bought protein coated on ELISA plates
The experiment can be described thus: ELISA, Tie2 coated, Ang2 proteins at 5 µg/ml.

Experiment [2] concerns the target T2, integrin alpha5beta1 protein (R&D systems) (human, UniProt P08648 42-995; P05556 21-728, limits assumed).
T2 construct: Bought recombinant heterodimer coated on the ELISA plate; also called α5β1
Briefly: ELISA, integrin coated at 5 µg/ml, FLAG-Ang2 at 10 µg/ml, anti-FLAG-HRP. In general terms: An ELISA detects its analyte on a solid surface through an enzyme-linked reagent.

The target of experiment [3] is T3, integrin alphaVbeta1 protein (R&D systems) (human, UniProt P06756 31-992; P05556 21-728).
T3 construct: Bought recombinant heterodimer coated on the ELISA plate; also called αVβ1
T3 sequence (P06756 31-992 limits assumed, chain 1 of 2): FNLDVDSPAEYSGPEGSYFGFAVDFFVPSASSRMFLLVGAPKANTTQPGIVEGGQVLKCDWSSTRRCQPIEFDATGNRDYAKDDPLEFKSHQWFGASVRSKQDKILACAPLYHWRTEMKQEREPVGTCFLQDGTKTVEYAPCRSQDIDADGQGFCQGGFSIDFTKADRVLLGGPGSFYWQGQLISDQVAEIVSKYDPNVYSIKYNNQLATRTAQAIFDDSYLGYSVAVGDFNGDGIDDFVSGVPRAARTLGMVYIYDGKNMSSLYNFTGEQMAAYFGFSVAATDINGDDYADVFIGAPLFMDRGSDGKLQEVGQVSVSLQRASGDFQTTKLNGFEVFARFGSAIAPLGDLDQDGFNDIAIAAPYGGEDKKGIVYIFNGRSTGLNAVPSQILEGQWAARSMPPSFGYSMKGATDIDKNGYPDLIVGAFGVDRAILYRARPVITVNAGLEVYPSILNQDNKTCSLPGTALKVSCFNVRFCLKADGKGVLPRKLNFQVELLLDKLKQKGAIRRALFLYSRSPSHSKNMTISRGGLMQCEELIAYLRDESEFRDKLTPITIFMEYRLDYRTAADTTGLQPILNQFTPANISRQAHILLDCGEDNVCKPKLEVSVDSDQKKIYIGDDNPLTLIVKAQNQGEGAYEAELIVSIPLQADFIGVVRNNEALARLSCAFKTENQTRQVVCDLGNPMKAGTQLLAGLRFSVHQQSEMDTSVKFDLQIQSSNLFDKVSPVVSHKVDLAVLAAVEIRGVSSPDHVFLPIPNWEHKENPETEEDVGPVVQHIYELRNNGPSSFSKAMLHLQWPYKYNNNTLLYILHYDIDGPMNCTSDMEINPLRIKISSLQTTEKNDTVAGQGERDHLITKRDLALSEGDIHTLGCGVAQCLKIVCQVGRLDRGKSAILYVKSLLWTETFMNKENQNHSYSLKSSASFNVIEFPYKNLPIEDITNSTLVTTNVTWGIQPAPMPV
T3 sequence (P05556 21-728 limits assumed, chain 2 of 2): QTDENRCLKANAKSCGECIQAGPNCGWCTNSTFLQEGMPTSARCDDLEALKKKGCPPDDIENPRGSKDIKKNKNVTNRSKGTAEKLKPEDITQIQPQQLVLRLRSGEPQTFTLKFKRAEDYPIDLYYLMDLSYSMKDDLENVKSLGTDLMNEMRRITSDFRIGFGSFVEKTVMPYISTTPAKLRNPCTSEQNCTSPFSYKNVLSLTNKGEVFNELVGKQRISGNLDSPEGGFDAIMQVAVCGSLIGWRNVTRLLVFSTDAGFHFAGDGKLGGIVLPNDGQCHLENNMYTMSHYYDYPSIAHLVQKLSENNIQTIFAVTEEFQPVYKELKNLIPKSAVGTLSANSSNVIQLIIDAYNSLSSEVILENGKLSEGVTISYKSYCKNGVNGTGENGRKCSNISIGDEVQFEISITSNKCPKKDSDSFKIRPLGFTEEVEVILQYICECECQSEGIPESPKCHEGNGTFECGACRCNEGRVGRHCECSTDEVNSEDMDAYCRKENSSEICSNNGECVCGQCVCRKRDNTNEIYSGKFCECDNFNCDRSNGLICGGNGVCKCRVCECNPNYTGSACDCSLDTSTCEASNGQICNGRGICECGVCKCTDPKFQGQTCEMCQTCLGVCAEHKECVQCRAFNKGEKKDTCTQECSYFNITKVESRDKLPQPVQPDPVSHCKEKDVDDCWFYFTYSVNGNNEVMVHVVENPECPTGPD
Described as above.

Experiment [4] concerns the target T4, integrin alphaVbeta3 protein (R&D systems) (human, UniProt P06756 31-992; P05106 27-718).
T4 construct: Bought recombinant heterodimer coated on the ELISA plate; also called αVβ3; integrin (αVβ3)
Described as above.

Experiment [5] deals with T4, integrin alphaVbeta3 protein (R&D …). The experiment can be described thus: ELISA, integrin αVβ3 coated, Ang2 proteins at 5 µg/ml.
The target of experiment [6] is integrin on U87MG cells. Briefly: cell-based or functional assay.

T1 sequence (Q02763 23-745 limits assumed, one chain of several): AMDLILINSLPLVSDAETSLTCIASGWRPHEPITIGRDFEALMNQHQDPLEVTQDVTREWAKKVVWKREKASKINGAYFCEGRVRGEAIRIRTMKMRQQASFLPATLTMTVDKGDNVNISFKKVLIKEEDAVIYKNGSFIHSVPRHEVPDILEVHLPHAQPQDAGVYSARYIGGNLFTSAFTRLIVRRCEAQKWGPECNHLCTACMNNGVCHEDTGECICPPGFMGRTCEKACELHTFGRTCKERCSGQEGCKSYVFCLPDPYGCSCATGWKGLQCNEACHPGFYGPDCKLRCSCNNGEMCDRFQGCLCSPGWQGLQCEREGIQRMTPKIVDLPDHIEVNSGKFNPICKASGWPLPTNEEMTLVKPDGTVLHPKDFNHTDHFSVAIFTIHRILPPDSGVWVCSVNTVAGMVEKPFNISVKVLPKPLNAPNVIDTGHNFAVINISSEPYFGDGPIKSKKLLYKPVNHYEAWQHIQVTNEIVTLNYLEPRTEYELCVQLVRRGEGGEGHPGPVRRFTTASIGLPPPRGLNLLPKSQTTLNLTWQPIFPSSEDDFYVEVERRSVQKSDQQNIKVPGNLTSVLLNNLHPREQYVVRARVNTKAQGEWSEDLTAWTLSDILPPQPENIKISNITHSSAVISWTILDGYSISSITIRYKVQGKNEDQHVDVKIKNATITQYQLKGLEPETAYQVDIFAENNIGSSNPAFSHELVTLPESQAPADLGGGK
T4 sequence (P06756 31-992 limits assumed, chain 1 of 2): as the sequence (P06756 31-992 limits assumed, chain 1 of 2) above
T4 sequence (P05106 27-718 limits assumed, chain 2 of 2): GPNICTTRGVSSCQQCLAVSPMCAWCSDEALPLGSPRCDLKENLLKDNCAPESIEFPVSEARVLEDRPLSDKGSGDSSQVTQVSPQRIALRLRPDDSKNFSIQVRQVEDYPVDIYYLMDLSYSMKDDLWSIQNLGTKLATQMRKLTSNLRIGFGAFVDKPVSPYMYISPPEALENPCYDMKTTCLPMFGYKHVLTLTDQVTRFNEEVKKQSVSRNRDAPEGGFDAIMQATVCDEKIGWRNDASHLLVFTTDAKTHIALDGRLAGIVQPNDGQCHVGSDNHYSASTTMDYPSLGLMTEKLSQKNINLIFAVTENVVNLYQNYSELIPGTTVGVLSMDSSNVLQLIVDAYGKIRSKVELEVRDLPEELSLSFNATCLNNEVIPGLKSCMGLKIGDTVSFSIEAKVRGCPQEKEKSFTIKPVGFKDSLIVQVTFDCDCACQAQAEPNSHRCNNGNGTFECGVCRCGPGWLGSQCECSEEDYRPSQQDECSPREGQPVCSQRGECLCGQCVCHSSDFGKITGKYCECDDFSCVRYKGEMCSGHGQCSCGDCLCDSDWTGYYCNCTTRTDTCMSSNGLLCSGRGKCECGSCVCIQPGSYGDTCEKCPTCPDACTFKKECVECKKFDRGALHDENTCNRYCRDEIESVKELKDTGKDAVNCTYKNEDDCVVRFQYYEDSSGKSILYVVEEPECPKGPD
T2 sequence (P08648 42-995 limits assumed, chain 1 of 2): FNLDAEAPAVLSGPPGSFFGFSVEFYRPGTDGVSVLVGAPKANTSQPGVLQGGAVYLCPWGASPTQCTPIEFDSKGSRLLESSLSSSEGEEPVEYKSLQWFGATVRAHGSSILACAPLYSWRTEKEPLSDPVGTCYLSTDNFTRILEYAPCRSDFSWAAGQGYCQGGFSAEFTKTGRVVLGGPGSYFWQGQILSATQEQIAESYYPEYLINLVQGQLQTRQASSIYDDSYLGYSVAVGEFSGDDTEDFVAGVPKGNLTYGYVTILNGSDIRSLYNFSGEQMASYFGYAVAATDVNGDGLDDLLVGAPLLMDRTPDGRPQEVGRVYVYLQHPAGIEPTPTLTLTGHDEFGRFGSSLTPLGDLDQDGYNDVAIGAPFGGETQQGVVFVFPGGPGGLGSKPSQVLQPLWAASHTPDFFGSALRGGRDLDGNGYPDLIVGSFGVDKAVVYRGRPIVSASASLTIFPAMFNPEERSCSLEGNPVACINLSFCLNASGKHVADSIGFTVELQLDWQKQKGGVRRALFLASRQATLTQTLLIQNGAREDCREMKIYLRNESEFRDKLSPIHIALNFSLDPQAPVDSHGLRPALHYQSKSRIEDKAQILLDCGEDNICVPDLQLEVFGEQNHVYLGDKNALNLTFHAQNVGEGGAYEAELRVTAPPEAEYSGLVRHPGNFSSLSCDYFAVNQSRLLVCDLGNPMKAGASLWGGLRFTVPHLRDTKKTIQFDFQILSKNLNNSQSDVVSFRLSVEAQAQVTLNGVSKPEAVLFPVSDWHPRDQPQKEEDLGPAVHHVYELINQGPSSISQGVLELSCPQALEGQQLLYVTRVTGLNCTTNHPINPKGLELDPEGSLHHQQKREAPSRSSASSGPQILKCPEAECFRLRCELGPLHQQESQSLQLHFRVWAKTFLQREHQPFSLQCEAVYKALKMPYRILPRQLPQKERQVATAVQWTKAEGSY
T2 sequence (P05556 21-728 limits assumed, chain 2 of 2): as the sequence (P05556 21-728 limits assumed, chain 2 of 2) above

B1: Ang2 protein having FLAG sequences tagged at its N-terminal (FLAG-Ang2), wild type (ligand)
chain: DYKDDDDKYNNFRKSMDSIGKKQYQVQHGSCSYTFLLPEMDNCRSSSSPYVSNAVQRDAPLEYDDSVQRLQVLENIMENNTQWLMKLENYIQDNMKKEMVEIQQNAVQNQTAVMIEIGTNLLNQTAEQTRKLTDVEAQVLNQTTRLELQLLEHSLSTNKLEKQILDQTSEINKLQDKNSFLEKKVLAMEDKHIIQLQSIKEEKDQLQVLVSKQNSIIEELEKKIVTATVNNSVLQKQQHDLMETVNNLLTMMSTSNSAKDPTVAKEEQISFRDCAEVFKSGHTTNGIYTLTFPNSTEEIKAYCDMEAGGGGWTIIQRREDGSVDFQRTWKEYKVGFGNPSGEYWLGNEFVSQLTNQQRYVLKIHLKDWEGNEAYSLYEHFYLSSEELNYRIHLKGLTGTAGKISSISQPGNDFSTKDGDNDKCICKCSQMLTGGWWFDACGPSNLNGMYYPQRQNTNKFNGIKWYYWKGSGYSLKATTMMIRPADF
notes: it may include a signal peptide that is absent from the protein; also called FLAG-tagged Ang2; wild-type Ang2 protein
Turning to B1, the binding result in experiment [1], in experiment [2], in experiment [3] and in experiment [4] was “binds” throughout.

B2: FLAG-Ang2 protein modified form (Q362A) (ligand)
chain: B1 chain with Q352A
notes: also called Q362A Ang2 protein; Q362A modified form
B2: the binding result in experiment [1] is “binds”. In experiment [5], the “binding level relative to the wild type Ang2” value was ≤ 50%. Moreover, the invasion of U87MG cells through matrigel-coated transwell toward 5 µg/ml Ang2 protein, 48 hours (fraction of wild type Ang2) in experiment [6] turned out to be 0.5.

With HTTNGIYTLTFPNST [Ang2 derived peptide of SEQ ID No. 3], the decrease in Ang2 dependent cell adhesion of U87MG cells to Ang2-coated plates, peptide at 100 µg/ml in experiment [6] was > 50%.

EYWLGNEFVSQLTNQ [Ang2 derived peptide of SEQ ID No. 15 (Peptide 15)]: the decrease in Ang2 dependent cell adhesion of U87MG cells to Ang2-coated plates, peptide at 100 µg/ml in experiment [6] is > 50%.

Take IYTLTFPNSTEEIKA [Ang2 derived peptide of SEQ ID No. 4]: the decrease in Ang2 dependent cell adhesion of U87MG cells to Ang2-coated plates, peptide at 100 µg/ml in experiment [6] was > 50%.

For LNYRIHLKGLTGTAG [Ang2 derived peptide of SEQ ID No. 24], in experiment [6], the decrease in Ang2 dependent cell adhesion of U87MG cells to Ang2-coated plates, peptide at 100 µg/ml is > 50%.
